Experimental data from IntAct's records for PubMed 31515488.

B1: Tripartite motif-containing protein 59 (Homo sapiens), Q8IWR1 (parent)
chain: MHNFEEELTCPICYSIFEDPRVLPCSHTFCRNCLENILQASGNFYIWRPLRIPLKCPNCRSITEIAPTGIESLPVNFALRAIIEKYQQEDHPDIVTCPEHYRQPLNVYCLLDKKLVCGHCLTIGQHHGHPIDDLQSAYLKEKDTPQKLLEQLTDTHWTDLTHLIEKLKEQKSHSEKMIQGDKEAVLQYFKELNDTLEQKKKSFLTALCDVGNLINQEYTPQIERMKEIREQQLELMALTISLQEESPLKFLEKVDDVRQHVQILKQRPLPEVQPVEIYPRVSKILKEEWSRTEIGQIKNVLIPKMKISPKRMSCSWPGKDEKEVEFLKILNIVVVTLISVILMSILFFNQHIITFLSEITLIWFSEASLSVYQSLSNSLHKVKNILCHIFYLLKEFVWKIVSH
partner: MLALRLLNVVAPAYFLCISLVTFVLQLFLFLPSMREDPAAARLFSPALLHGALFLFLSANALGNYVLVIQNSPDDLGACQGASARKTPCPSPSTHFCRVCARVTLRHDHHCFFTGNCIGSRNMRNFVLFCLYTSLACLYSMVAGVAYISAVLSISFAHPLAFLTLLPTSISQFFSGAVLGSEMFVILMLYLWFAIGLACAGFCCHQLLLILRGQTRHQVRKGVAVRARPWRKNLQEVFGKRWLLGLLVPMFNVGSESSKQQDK
B2: Zinc finger protein Aiolos (Homo sapiens), Q9UKT9 (parent)
chain: MEDIQTNAELKSTQEQSVPAESAAVLNDYSLTKSHEMENVDSGEGPANEDEDIGDDSMKVKDEYSERDENVLKSEPMGNAEEPEIPYSYSREYNEYENIKLERHVVSFDSSRPTSGKMNCDVCGLSCISFNVLMVHKRSHTGERPFQCNQCGASFTQKGNLLRHIKLHTGEKPFKCHLCNYACQRRDALTGHLRTHSVEKPYKCEFCGRSYKQRSSLEEHKERCRTFLQSTDPGDTASAEARHIKAEMGSERALVLDRLASNVAKRKSSMPQKFIGEKRHCFDVNYNSSYMYEKESELIQTRMMDQAINNAISYLGAEALRPLVQTPPAPTSEMVPVISSMYPIALTRAEMSNGAPQELEKKSIHLPEKSVPSERGLSPNNSGHDSTDTDSNHEERQNHIYQQNHMVLSRARNGMPLLKEVPRSYELLKPPPICPRDSVKVINKEGEVMDVYRCDHCRVLFLDYVMFTIHMGCHGFRDPFECNMCGYRSHDRYEFSSHIARGEHRALLK
partner: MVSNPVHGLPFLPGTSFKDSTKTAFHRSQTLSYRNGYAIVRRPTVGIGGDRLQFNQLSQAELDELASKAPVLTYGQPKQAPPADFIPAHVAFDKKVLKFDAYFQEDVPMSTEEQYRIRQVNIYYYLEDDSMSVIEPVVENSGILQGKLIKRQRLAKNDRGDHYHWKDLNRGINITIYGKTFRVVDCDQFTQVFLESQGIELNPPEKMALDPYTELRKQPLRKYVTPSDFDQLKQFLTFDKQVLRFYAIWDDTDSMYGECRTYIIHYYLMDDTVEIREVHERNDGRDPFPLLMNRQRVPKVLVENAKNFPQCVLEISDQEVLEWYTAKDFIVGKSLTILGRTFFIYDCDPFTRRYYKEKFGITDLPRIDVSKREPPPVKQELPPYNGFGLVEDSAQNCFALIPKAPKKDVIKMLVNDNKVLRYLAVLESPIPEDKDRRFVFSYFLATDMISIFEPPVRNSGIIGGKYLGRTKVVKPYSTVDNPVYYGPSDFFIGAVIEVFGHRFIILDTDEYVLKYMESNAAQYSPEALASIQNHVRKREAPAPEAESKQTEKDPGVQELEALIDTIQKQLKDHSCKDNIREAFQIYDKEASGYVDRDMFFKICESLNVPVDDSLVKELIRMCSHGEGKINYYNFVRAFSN
B3: Nebulette (Homo sapiens), O76041 (parent)
chain: MRVPVFEDIKDETEEEKIGEEENEEDQVFYKPVIEDLSMELARKCTELISDIRYKEEFKKSKDKCTFVTDSPMLNHVKNIGAFISEAKYKGTIKADLSNSLYKRMPATIDSVFAGEVTQLQSEVAYKQKHDAAKGFSDYAHMKEPPEVKHAMEVNKHQSNISYRKDVQDTHTYSAELDRPDIKMATQISKIISNAEYKKGQGIMNKEPAVIGRPDFEHAVEASKLSSQIKYKEKFDNEMKDKKHHYNPLESASFRQNQLAATLASNVKYKKDIQNMHDPVSDLPNLLFLDHVLKASKMLSGREYKKLFEENKGMYHFDADAVEHLHHKGNAVLQSQVKYKEEYEKNKGKPMLEFVETPSYQASKEAQKMQSEKVYKEDFEKEIKGRSSLDLDKTPEFLHVKYITNLLREKEYKKDLENEIKGKGMELNSEVLDIQRAKRASEMASEKEYKKDLESIIKGKGMQAGTDTLEMQHAKKAAEIASEKDYKRDLETEIKGKGMQVSTDTLDVQRAKKASEMASQKQYKKDLENEIKGKGMQVSMDIPDILRAKRTSEIYSQRKYKDEAEKMLSNYSTIADTPEIQRIKTTQQNISAVFYKKEVGAGTAVKDSPEIERVKKNQQNISSVKYKEEIKHATAISDPPELKRVKENQKNISNLQYKEQNYKATPVSMTPEIERVRRNQEQLSAVKYKGELQRGTAISDPPELKRAKENQKNISNVYYRGQLGRATTLSVTPEMERVKKNQENISSVKYTQDHKQMKGRPSLILDTPAMRHVKEAQNHISMVKYHEDFEKTKGRGFTPVVDDPVTERVRKNTQVVSDAAYKGVHPHIVEMDRRPGIIVDLKVWRTDPGSIFDLDPLEDNIQSRSLHMLSEKASHYRRHWSRSHSSSTFGTGLGDDRSEISEIYPSFSCCSEVTRPSDEGAPVLPGAYQQSHSQGYGYMHQTSVSSMRSMQHSPNLRTYRAMYDYSAQDEDEVSFRDGDYIVNVQPIDDGWMYGTVQRTGRTGMLPANYIEFVN
partner: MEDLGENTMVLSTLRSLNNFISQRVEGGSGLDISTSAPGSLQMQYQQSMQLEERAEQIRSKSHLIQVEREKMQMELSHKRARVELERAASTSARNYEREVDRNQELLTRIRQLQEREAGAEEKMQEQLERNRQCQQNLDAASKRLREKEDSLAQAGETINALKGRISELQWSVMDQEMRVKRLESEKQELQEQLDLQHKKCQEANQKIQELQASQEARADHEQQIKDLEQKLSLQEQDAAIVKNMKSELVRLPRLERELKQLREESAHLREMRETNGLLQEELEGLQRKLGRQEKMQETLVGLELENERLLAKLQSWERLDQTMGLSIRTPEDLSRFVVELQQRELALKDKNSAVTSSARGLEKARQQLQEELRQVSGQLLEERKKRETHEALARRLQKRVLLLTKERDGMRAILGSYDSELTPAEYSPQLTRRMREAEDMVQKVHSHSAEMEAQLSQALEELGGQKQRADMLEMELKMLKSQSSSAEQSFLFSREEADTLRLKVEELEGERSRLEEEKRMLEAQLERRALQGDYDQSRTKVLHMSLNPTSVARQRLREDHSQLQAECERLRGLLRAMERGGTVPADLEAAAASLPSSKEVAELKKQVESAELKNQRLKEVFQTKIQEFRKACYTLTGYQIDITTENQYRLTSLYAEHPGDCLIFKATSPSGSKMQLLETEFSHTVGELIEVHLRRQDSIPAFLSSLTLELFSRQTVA
B4: Protein RD3 (Homo sapiens), Q7Z3Z2 (parent)
chain: MSLISWLRWNEAPSRLSTRSPAEMVLETLMMELTGQMREAERQQRERSNAVRKVCTGVDYSWLASTPRSTYDLSPIERLQLEDVCVKIHPSYCGPAILRFRQLLAEQEPEVQEVSQLFRSVLQEVLERMKQEEEAHKLTRQWSLRPRGSLATFKTRARISPFASDIRTISEDVERDTPPPLRSWSMPEFRAPKAD

Variants of: B1
Conditions: with zdh22_human ZDHHC22, Q8N966

effect of a mutation on the interaction	Variant
with no effect	I277V

Variants of: B2
Conditions: with efhc1_human EFHC1, Q5JVL4

effect of a mutation on the interaction	Variant
with no effect	A24V
with no effect	N119D

Variants of: B3
Conditions: with md1l1_human MAD1L1, Q9Y6D9

effect of a mutation on the interaction	Variant
with no effect	R613Q
with no effect	M351V

Variants of: B4
Conditions: with ei2ba_human EIF2B1, Q14232
Chain of ei2ba_human EIF2B1, Q14232 (Q14232 whole entry): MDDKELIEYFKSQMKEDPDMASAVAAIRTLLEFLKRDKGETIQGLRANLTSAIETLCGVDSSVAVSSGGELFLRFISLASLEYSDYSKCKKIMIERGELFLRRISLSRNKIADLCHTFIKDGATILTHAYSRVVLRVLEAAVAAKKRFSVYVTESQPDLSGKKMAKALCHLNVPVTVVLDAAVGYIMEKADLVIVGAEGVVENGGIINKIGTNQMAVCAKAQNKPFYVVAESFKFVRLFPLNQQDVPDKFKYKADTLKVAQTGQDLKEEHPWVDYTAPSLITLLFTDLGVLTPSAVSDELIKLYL

effect of a mutation on the interaction	Variant
with no effect	R167K
